Data set [1] in a line: Temperature stability of LacGL1 laccase at pH 4.7. It counts as physicochemical. The following applies: for activity retained: pH 4.7. The protocol: FIG. 9. The temperature stability profile of LacGL1 laccase as a function of LN [U/mL] vs. incubation time at pH 4.7 and 0.1 M citrate-phosphate buffer. […] The relative difference between single measurements was <5%.
FIG. 10. LacGL1 laccase stability evolution plot at optimum pH of 4.7 and two different temperature values (40° C. and 50° C.). Since the plot is a continuation of temperature stability plot (FIG. 9), the first measurement is given after 1 h. Laccase residual activity [%] is calculated based on activity value of laccase measured at pH 4.7 and 25° C. The relative difference between single measurements was <5%.
The predicted optimal conditions for the LacGL1 laccase activity were validated by measuring the effect of temperature on the relative activity of LacGL1 laccase at pH 4.7. […] (FIG. 10).

Data set [2] is described as follows: Laccase-cellulase catalyzed hydrolysis of pretreated biomass, glucose release. It counts as biochemical. The following applies: with cellulase 1 or 2, pH 5.1, 50° C., 30 hour. As for the experimental part: FIG. 15. A graphical comparison of glucose released over time during hydrolysis of pre-treated wheaty straw at pH 5.1 and 50° C. by each of commercial enzyme preparations Cellulase 1 (CC2) [A]; or Cellulase 2 [B], either alone, or in combination with a laccase enzyme; the tested laccases being respectively LacGL1 and GLlac1 (LacJooSS; Q9HG17) derived from G. lucidum; and laccases derived from Agaricus bisporus (Sigma 40452), Pleurotus ostreatus (Sigma 75117) and, Trametes versicolor (Sigma 51639).
(§1) The commercial fungal laccases were purchased as lyophilized protein samples from Sigma Aldrich. A solution of each of the above 5 laccases was prepared in a citric buffer containing 20% of glycerol (pH 5.1, 100 mM).
(§2) Two different commercially available cellulase enzyme preparations used in the comparative study were “Cellulase 1” and “Cellulase 2”, which were tested in combination with each of the laccases listed above.
(§3) The three different types of pretreated biomass used in the comparative study were sugarcane bagasse, barley straw and wheat straw. The source and pre-treatment of the sugarcane bagasse by steam explosion was as set out in Example 9. […] The composition of the dry and the pretreated biomass were determined according to the US National Renewable Energy Laboratory (NREL) procedures (Sluiter et al, 2010).
(§4) The laccase-cellulase catalyzed hydrolysis of the pretreated biomass samples to release glucose was performed as follows: Hydrolysis of 5% (w/v) samples of pretreated sugarcane bagasse, barley straw, and wheat straw biomass were assayed using an Enzyme/Substrate (E/S) ratio of 0.064% w/w for laccases and of 0.4% w/w for each commercial cellulase preparation in each hydrolysis reaction. The E/S dosage was based on the total protein concentration used, as determined using Pierce BCA (BiCinchoninic Acid) protein assay kit microplate procedure according to manufacturer's instruction (Thermo Fisher Scientific, Rockford, US). […]
(§5) Laccase and cellulase-mediated hydrolysis of the 3 biomass forms, measured as glucose release, are shown graphically in FIGS. 13, 14 and 15. […]

Experiment in data set [3]: as above
It counts as biochemical. The settings on record: with cellulase 1 or 2, pH 5.1, 50° C., 30 hour, p<0.05. As for the experimental part: FIG. 14. A graphical comparison of glucose released over time during hydrolysis of pre-treated barley straw at pH 5.1 and 50° C. by each of commercial enzyme preparations Cellulase 1 (CC2) [A]; or Cellulase 2 [B], either alone, or in combination with a laccase enzyme; the tested laccases being respectively LacGL1 and GLlac1 (LacJooSS; Q9HG17) derived from G. lucidum; and laccases derived from Agaricus bisporus (Sigma 40452), Pleurotus ostreatus (Sigma 75117) and, Trametes versicolor (Sigma 51639).
as §1, §2, §3, §4, §5

B1: LacGL1: Fungal laccase from Ganoderma lucidum CBS229.93 (SEQ ID NO: 5/9), recombinantly expressed in Pichia pastoris X-33 (protein, listed as Ganoderma lucidum)
chain: GIGPKTDLTISNADVAPDGYTRAAVVVNGVFPAPLITGNKGDRFQLNVIDQMTNHTMLKSTSIHWHGFFQKGTNWADGPAFINQCPISSGHSFLYDFQVPDQAGTFWYHSHLSTQYCDGLRGPFVVYDPKDPLKKLYDIDDDSTVITLTDWYHVAARLGPRFPLGSDSTLINGLGRSTTNVTADLAVINVTQGKRYRFRLVSLSCDPNYTFSIDDHNMTVIEADGIETQPVTVNAIQIFSAQRYSFVLTANQTIDNYWIRANPNFGNVGFTDGINSAILRYAGADPVEPTTSQQTTQNLLNEVDLHPFVPKRTPGQPTQGGVDTAINMVFNFNGSNFFINNASFVPPTVPVLLQILSGAQAAQDLLPSGSVYTLPVNKSIELTFPATANAPGAPHPFHLHGHAFAVVRSAGSTVYNYDNPVWRDVVSTGTPAAGDNVTIRFQTDNPGPWFLHCHIDFHLEAGFAVVFAEDPTDTSLANPVPKAWSDLCPTYDALSVDDQ
modifications: mat_peptide (1)..(499) Mature LacGL1 laccase (minus signal peptide)
As to B1, the change of activity entry in data set [1] (25, 40 and 50° C., pH 4.7, within an hour) was “did not change significantly”. In addition, the laccase activity remaining in data set [1] (60° C., pH 4.7, within an hour) is recorded as 19%; in data set [1] (70° C., pH 4.7, within an hour), 3%. Also, the values for the activity retained in data set [1] (after 5 h at 50° C.) and in data set [1] (after 24 h at 40° C.) were 23% and 33%, respectively. The “glucose release compared to GLlac1” value was “the same” in data set [2] and “significantly greater” in data set [3]. For the same molecule, the “glucose release compared to the other tested laccases” value in data set [2] (p<0.05) and in data set [3] was “significantly enhanced” throughout.

For the origin of these results see patent US9725702B2, “Laccase from ganoderma lucidum capable of enhancing enzymatic degradation of lignocellulolytic biomass” (DANMARKS TEKNISKE UNIVERSITET, priority 2012, dated 2017).
